1 sequence from article PMC6307784 can be followed below.

In the series the target is T1, NhaR-His6 (Escherichia coli) (UniProt P0A9G2).
T1 sequence: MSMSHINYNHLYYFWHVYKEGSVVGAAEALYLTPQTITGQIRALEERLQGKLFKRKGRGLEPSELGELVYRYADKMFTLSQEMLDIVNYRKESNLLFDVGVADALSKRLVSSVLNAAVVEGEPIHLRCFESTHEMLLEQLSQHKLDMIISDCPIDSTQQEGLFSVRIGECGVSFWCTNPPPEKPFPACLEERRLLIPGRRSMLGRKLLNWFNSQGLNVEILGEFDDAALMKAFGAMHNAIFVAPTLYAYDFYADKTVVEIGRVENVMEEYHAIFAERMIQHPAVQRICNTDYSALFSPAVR
In words: EMSA. The settings on record: LightShift Chemiluminescent EMSA Kit (Pierce) as per manufacturer, DNA 1 fM as printed, 5% PAGE; buffer, salt, pH and temperature not stated.

Turning to “TCGACGAAGATAGAATCGTCTTTTTCGCGAAGTCTTACAAGGCGCTTACAGACAATGCCTTAAGGAAAATTTCATATGAAAGTTAAGAATTAACAATCAACATTTTGATTTTAAATGAAAATAACGATTCTTATCTTTTTAAGTATTCGCTTATTTCCTGGCGATCTCCTACAGAGTCTGTAAGAGATCTCTCACAACCAGATGGGGTATTTGGATTA (double strand) [csrB promoter 220 bp]”, the binding entry is listed as “no binding”.
